# In patent US20140242061:
# T1: human macrophage mannose receptor (MMR), P22897
# T1 chain: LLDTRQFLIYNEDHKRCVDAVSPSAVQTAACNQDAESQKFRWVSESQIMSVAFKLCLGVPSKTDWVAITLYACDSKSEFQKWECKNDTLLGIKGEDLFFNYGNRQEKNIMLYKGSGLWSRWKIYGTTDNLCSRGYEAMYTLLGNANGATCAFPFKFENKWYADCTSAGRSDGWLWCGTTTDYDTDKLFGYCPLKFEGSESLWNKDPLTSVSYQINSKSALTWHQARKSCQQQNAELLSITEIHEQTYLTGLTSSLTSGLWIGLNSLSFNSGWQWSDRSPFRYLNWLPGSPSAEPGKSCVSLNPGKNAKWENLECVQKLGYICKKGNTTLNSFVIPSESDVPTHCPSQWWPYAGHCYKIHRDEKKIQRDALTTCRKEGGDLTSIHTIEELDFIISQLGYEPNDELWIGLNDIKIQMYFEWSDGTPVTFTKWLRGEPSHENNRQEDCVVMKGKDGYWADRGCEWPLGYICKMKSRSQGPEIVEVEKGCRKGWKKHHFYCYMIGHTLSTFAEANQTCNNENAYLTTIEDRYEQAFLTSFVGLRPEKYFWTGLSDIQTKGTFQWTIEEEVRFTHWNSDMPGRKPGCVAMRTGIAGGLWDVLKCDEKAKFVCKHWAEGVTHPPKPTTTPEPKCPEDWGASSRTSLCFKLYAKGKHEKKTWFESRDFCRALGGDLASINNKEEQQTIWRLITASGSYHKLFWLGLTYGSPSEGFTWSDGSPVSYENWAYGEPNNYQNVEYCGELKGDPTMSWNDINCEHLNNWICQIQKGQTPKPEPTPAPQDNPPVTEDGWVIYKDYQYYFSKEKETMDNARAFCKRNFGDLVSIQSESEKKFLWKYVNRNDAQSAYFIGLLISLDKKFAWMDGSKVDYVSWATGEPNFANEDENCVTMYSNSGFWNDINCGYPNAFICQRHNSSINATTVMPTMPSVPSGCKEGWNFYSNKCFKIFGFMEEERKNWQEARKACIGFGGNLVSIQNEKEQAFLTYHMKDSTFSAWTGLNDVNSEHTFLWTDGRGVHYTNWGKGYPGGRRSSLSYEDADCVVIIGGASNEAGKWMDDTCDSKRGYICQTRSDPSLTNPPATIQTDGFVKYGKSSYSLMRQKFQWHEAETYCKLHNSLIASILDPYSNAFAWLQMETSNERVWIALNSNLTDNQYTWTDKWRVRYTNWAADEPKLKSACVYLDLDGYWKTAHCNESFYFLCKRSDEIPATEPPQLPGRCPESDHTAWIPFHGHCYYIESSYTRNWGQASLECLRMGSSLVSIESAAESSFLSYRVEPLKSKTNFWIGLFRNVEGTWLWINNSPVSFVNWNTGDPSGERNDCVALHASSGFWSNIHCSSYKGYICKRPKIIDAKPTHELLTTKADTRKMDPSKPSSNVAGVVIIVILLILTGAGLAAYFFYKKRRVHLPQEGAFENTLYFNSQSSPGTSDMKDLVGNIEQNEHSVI
# Biological target: T1, human macrophage mannose receptor …
protein,measurement,value
velaglucerase alfa (protein) ARPCIPKSFGYSSVVCVCNATYCDSFDPPTFPALGTFSRYESTRSGRRMELSMGPIQANHTGTGLLLTLQPEQKFQKVKGFGGAMTDAAALNILALSPPAQNLLLKSYFSEEGIGYNIIRVPMASCDFSIRTYTYADTPDDFQLHNFSLPEEDTKLKIPLIHRALQLAQRPVSLLASPWTSPTWLKTNGAVNGKGSLKGQPGDIYHQTWARYFVKFLDAYAEHKLQFWAVTAENEPSAGLLSGYPFQCLGFTPEHQRDFIARDLGPTLANSTHHNVRLLMLDDQRLLLPHWAKVVLTDPEAAKYVHGIAVHWYLDFLAPAKATLGETHRLFPNTMLFASEACVGSKFWEQSVRLGSWDRGMQYSHSIITNLLYHVVGWTDWNLALNPEGGPNWVRNFVDSPIIVDITKDTFYKQPMFYHLGHFSKFIPEGSQRVGLVASQKNDLDAVALMHPDGSAVVVVLNRSSKDVPLTIKDPAVGFLETISPGYSIHTYLWRRQ,"internalization rate in U937-derived macrophages (4-MU-glc activity assay), relative to imiglucerase",velaglucerase alfa is internalized up to 2.5-fold more efficiently than imiglucerase
